These are literature values, as cited in paper PMC6640714.

By Kd is commonly meant the constant that tells how readily two partners part at equilibrium.

The target of this data set is FcγRIa (Homo sapiens) (UniProt P12314). As to the kind of experiment: given as Ka.
Sequence of FcγRIa (Homo sapiens) (P12314 16-374): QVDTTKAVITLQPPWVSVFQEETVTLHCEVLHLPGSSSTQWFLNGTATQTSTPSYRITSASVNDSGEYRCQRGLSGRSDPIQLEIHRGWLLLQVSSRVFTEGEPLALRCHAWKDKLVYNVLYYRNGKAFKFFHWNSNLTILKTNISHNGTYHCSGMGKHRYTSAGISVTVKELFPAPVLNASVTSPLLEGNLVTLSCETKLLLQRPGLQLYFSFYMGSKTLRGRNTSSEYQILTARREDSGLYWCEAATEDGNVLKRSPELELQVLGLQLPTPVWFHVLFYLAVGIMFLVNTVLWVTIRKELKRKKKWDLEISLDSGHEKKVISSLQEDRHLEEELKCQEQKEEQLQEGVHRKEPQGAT

Sequence of IgG4 (P01861 whole entry): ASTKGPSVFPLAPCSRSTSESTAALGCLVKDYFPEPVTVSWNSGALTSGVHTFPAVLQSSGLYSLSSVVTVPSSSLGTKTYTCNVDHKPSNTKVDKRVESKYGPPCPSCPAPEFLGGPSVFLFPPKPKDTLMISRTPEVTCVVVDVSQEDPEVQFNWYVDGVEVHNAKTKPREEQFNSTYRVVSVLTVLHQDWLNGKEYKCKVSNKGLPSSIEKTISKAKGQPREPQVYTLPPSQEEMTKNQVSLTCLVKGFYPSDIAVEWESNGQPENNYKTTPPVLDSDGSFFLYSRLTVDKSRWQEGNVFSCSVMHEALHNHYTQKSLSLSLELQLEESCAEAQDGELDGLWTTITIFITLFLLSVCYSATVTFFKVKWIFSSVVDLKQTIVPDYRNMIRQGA

As for IgG4 (from UniProt P01861), the Kd is 0.0294 µM.
